In US5731411, “Promotion of homologous DNA pairing by RecA-derived peptides” (The United States of America as represented by the …):

B1: 57-mer ssDNA (ssDNA)
DNA: CTGTCTACTCTCGAGGTTAACCCGTGCGAATTCTACGATTGGTGCGGCCGGTATATC
B2: BS-S1 ssDNA (ssDNA)
DNA: GGCCGCTCTAGAACTAGTGGATCCCCCGGGCTGCAGGAATTCGATATCAAGCT

Columns and labels:
[1] = target: T1, FECO (RecA residues 193-212 peptide) (Escherichia coli, UniProt P0A7G8 SEQ:1-20); test: CD, random coil to beta structure, pH 7.5; conditions: protein: synthetic; tags: synthetic peptide, HPLC purified
T1 chain: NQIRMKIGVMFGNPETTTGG

[2] = target: T2, WT-14 (RecA residues 196-209 peptide) (Escherichia coli, UniProt P0A7G8); test: filter; peptide up to 100 uM, pH 8.3; no joint molecules; conditions: protein: synthetic; tags: synthetic peptide, HPLC purified; label: 5' 32P
T2 chain: RMKIGVMFGNPETT

[3] = target: T1, FECO (RecA residues 193-212 peptide); test: filter; 10 mM MgCl2, pH 8.3, room temp; less tight without Mg; unstacks ssDNA (permanganate); joint molecules with homologous pBluescript but not pUC19 (Example 5); conditions: protein: synthetic; tags: synthetic peptide, HPLC purified; label: 5' 32P

Binder	binding result [1]	binding result [2]	binding result [3]
B1	binds		
B2		no binding	binds
